The source of these data is the nanobody polyreactivity screen of Harvey et al. (2022).

The nature of the data set: yeast display, Sf9 membrane polyspecificity reagent, FACS + sequencing; frameworks hold sequencing errors. A digest of the protocol: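 Sorting gates, low and high (top ~1%), were placed on anti-HA fluorescence to track expression and on streptavidin fluorescence to track reagent binding. A clone's polyreactivity label is taken from the gate it came out of. The reagent was 10% biotinylated, detergent-solubilized Sf9 membrane, applied for 1 hour at 4 °C to galactose-induced yeast display cells.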
As for “QVQLVESGGGLVQAGGSLRLSCAASGRIFAFYALGWYIQAPGKERELVAAISWSDDITYYADSVKGRFTISRDNAKNTVYSQMNSLKPEDTAVYYCAYRRRGYAFSSDYWGQGTQVTVSS”, the “polyreactivity (PSR sort gate)” value is “high polyreactivity”.
On to “QVQLVESGGGLVQAGGSLRLSCAASGRIFAGYAMGWYRQAPGKERELVAAISDGGTTNYADSVKGRFTISRDNAKNTVYLQMNSLKPEDTAVYYCAAKSRTYQSYYYWGQGTQVTVSS”, for which the “polyreactivity (PSR sort gate)” value is reported as “low polyreactivity”.
Then “QVQLVESGGGLVQAGGSLRLSCAASGRIFAHNAMGWYRQAPGKERELVAAINSGGSTRYADSVKGRFTISRDNAKNTVYLQMNSLKPEDTAVYYCARGPKGYYFARYGYWGQGTQVTVSS”, with “high polyreactivity”; and “QVQLVESGGGLVQAGGSLRLSCAASGRIFAHYAMGWYRQAPGKERELVADITDGGSTYYADSVKGRFTISRDNAKNTVYLQMNSLKPEDTAVYYVATRRGPWPSEYDSWGQGTQVTVSS”, with “low polyreactivity”.
Then “QVQLVESGGGLVQAGGSLRLSCAASGRIFAIYAMGWYRQAPGKERELVAGITYSAGSTYYADSVKGRFTISRDNAKNTVYLQMNSLKPEDTAVYYCAALEYNSHRYGYDYWGQGTQVTVSS”, with “low polyreactivity”; and “QVQLVESGGGLVQAGGSLRLSCAASGRIFAKNAMGWYRQAPGKERELVAAINHSGGSTYYADSVKGRFTISRDNAKNTVYLQMNSLKPEDTAVYYCAARGLTTRSPFYYWGQGTQVTVSS”, with “high polyreactivity”; and “QVQLVESGGGLVQAGGSLRLSCAASGRIFAPKAMGWYRQAPGKERELVADINFSGDSTYYADSVKGRFTISRDNAKNTVYLQMNSLKPEDTAVYYCAADISLVSYYYWGQGTQVTVSS”, with “low polyreactivity”.
Then “QVQLVESGGGLVQAGGSLRLSCAASGRIFAPYAKGRYRQAPGKERELVAAIRWRGGSTSYADSVKGRFTISRDNAKNTVYLQLNSLKPEDSAVYSCNADYGFSFYWYDYWGHGTQVTVSS”, with “low polyreactivity”.
For the sequence “QVQLVESGGGLVQAGGSLRLSCAASGRIFARNAMGWYRQAPGKEREFVAAITHSGGNTYYADSVKGRFTISRDNAKNTVYLQMNSLKPEATAVYYCAKDYRSTKYDYWGQGTQVTVSS”, the “polyreactivity (PSR sort gate)” value is on record as “low polyreactivity”.
For “QVQLVESGGGLVQAGGSLRLSCAASGRIFASNAMGWYRQAPGKERELVAGISRNGGSTFYADSVKGRFTISRDNAKNTVYLQMNSLKPEDTAVYYCARYYTHSGGYRDRIYYYWGQGTQVTVSS”, the “polyreactivity (PSR sort gate)” value is “low polyreactivity”.
Then “QVQLVESGGGLVQAGGSLRLSCAASGRIFASYAMGWYRQAPGKERELVAAISAGGGSRTYYADSVKGRFTISRDNAKNTVYLQMNSLKPEDTAVYYCNTANSWLRQYYYWGQGTQVTVSS”, with “high polyreactivity”; and “QVQLVESGGGLVQAGGSLRLSCAASGRIFATNAMGWYIQAPGKERELVAAISWDGGSTYYADSVKGRFTISRDNAKNTVYLQMNSLKPEDTAVYYCNKVLYYAYDYWGQGTQVTVSS”, with “low polyreactivity”; and “QVQLVESGGGLVQAGGSLRLSCAASGRIFAVNALGWYRQAPGPERELVATIRGSGTSTYYADSVKGRFTISRDHATNTVYLQMNSLKPEDTAVYYCAKAYNGRYTWRYDYWGQGTQVTVSS”, with “high polyreactivity”.
On to “QVQLVESGGGLVQAGGSLRLSCAASGRIFAVNTMGWYRQAPGKEREFVAAISDSGGGTYYADSVKGRFTISRDNAKKTVYLQMNSLKPEDTAVYYCNAKGQRSPYSKLEYWGQGTQVTVSS”, for which the “polyreactivity (PSR sort gate)” value is “high polyreactivity”.
For “QVQLVESGGGLVQAGGSLRLSCAASGRIFAVYAMGWYRQAPGKERELVAAISWSGGRTYYADSVKGRFTISRDNAKNTVYLQMNSLKPEDTAVYYCNRTPTGSYLYGMDYWGQGTQVTVSS”, the “polyreactivity (PSR sort gate)” value is “high polyreactivity”.
Then “QVQLVESGGGLVQAGGSLRLSCAASGRIFAWDAMGRYRQAPGKERELVAAITWGGGRTYYADSVKGRFTISRDNAKNTVYLQMNSLKPEDTAVYYCAAYSYKEEAYRGVAQERDYWGQGTQVTVSS”, with “low polyreactivity”; and “QVQLVESGGGLVQAGGSLRLSCAASGRIFAWYAMGWYRQSPGKESELVAAISDSGGSTYYADSVKGRFTISRDNAKNTVYLQMNSLKPEDTAVYYCAADQVVYSAYWSDHYDYWGQGTQVTVSS”, with “low polyreactivity”; and “QVQLVESGGGLVQAGGSLRLSCAASGRIFAYNAMGWYREAPGKERELVASITSGGGRTYYADSVKGRFTISRDNAKNTVYLQMNSLKPEDTAVYYCNVDVSLSKFGSVLYDYWGQGTQVTVSS”, with “low polyreactivity”.
As for “QVQLVESGGGLVQAGGSLRLSCAASGRIFAYNTMGWYRQAHGKEREFVAVITSGGSTNYADSVKGRFTISRDNAKNTVFLLLNSLKPEDTAVYYCAKRPYGRSGGSRYDYWGQGTKVTVSS”, the “polyreactivity (PSR sort gate)” value is listed as “high polyreactivity”.
To “QVQLVESGGGLVQAGGSLRLSCAASGRIFAYYAMEWYRQAPGKERELVAAITRSGARTYYADSVKGRFTISRDNAKNSVYLQMNSLKPEDTAVYYFAAEGVRIGTRYDYWGQGTQVTVSS” belongs “high polyreactivity”; to “QVQLVESGGGLVQAGGSLRLSCAASGRIFAYYAMGWYRQAPGKERELVAAINTSGAPTNYADSVKGRFTISRDNAKNTVYLQMISLKPEDTAVYYCAARRARYHVEYYYWGQGTQVTVSS”, “high polyreactivity”; to “QVQLVESGGGLVQAGGSLRLSCAASGRIFAYYAMGWYRQAPGKERELVAAISFIGGSTYYADSVKGRFTISRDNAKNTVYLQMNSLKPEDTAVDYCTAGYVRRYSPSSSWRYDYWGQGTQVTVSS”, “high polyreactivity”.
Then “QVQLVESGGGLVQAGGSLRLSCAASGRIFAYYAMGWYRQAPGKERELVAAISRGGGSTSYADSVKGRFTISRDNAKNTFYLQMNSLKPEDTAVYYCAKDRGYRYLGDYWGQGTQVTVSS”, with “low polyreactivity”.
In the case of “QVQLVESGGGLVQAGGSLRLSCAASGRIFAYYAMGWYRQAPGKERELVAAISSGGSTKYADSVKGRFTISRDNAKNTVYLQMNSLKPEDTAVYYCAAKYGYRKYRGFQNGGDYWGQGTQVNVSS”, the “polyreactivity (PSR sort gate)” value is given as “high polyreactivity”.
With “QVQLVESGGGLVQAGGSLRLSCAASGRIFAYYAMGWYRQAPGKERELVAAISSGGTTNYADSVKGRFTISRDNAKITVYLQMNSLIPEDTAVYYCNADGWRRSRQYYYWGQGTQVTVSS”, the “polyreactivity (PSR sort gate)” value is listed as “low polyreactivity”.
Turning to “QVQLVESGGGLVQAGGSLRLSCAASGRIFAYYAMGWYRQAPGKERELVAAITSSGGSTYYADSVKGRFTISRDNAKNTVYLQMNSLKPEDTAVYFCAKVGARSERFDYRGQGTQVTVSS”, the “polyreactivity (PSR sort gate)” value is recorded as “high polyreactivity”.
Then “QVQLVESGGGLVQAGGSLRLSCAASGRIFAYYAMGWYRQAPGKERELVAAITTNGGGTYYADSVKGRFTISRDNETNTVYLQMNSLKAEDTAVYYCAKRSWIEYDYWGQGTQVTVSS”, with “low polyreactivity”; and “QVQLVESGGGLVQAGGSLRLSCAASGRIFAYYAMGWYRQAPGKERELVAGINSGGGSTYYADSVKGRFTISRDNAKNTVYLQMNSLKPEDNAVSYCATYYYRRSNRSSTSYDYWGQGTQVTVSS”, with “high polyreactivity”.
With “QVQLVESGGGLVQAGGSLRLSCAASGRIFAYYAMGWYRQAPGKERELVATITRGGNTNYADSVKGRFTISRDNAKNTVYLQMNSLKPEDTAVYYCNRRYSRWGIYDYWGQGTQVTVSS”, the “polyreactivity (PSR sort gate)” value was “high polyreactivity”.
Then “QVQLVESGGGLVQAGGSLRLSCAASGRIFAYYAMGWYRQAPGKEREVVAAISRSGVSTYYADSVKGRFTISRDNAKNTVYLQMNSLKPEDTAVYYCAARWRYGFTSGDYWGQGTQVNVSS”, with “low polyreactivity”; and “QVQLVESGGGLVQAGGSLRLSCAASGRIFAYYAMGWYRQAPGQERELVATITGGGDRTYYADSVKGRFTISRDNAKNTLYLQMNSLKPEDTAVYYCNARVWYYSPYYYWGQGTQVTVSS”, with “low polyreactivity”.
In the case of “QVQLVESGGGLVQAGGSLRLSCAASGRIFAYYTMGWYRQAPGKERELVAAISGSSGRTYYADSVKGRFTISRDNAKNTVYLQMNSLKPEDTAVYYCAARGFSFWRYYYWGQGTQVTVSS”, the “polyreactivity (PSR sort gate)” value is “high polyreactivity”.
Then “QVQLVESGGGLVQAGGSLRLSCAASGRIFDDNAKGCYRQPPGKERELLASLTVSTGSTYYADSVKGRFTISRDTAKNTVYLQMNSLKPEDTAVYYCAAPYITPYGTYVFSSDYWGQGTQVTVSS”, with “low polyreactivity”; and “QVQLVESGGGLVQAGGSLRLSCAASGRIFDDYAMGWYRQAPGKEREFVAAISRSGASTYYADSVKGRFTISRDNAKNTVYLQMNSLKPEDTAVYYCAARAGANYRMDYWGQGTQVTVSS”, with “high polyreactivity”.
Then “QVQLVESGGGLVQAGGSLRLSCAASGRIFDDYGMGWYRQAQGKESELVAGISFIAGSTYYADSVKGRFTISRDNAKNTVYLQMNSLKPEDTAVYYCAVELWYEYYYWGQGTQVTVSS”, with “high polyreactivity”; and “QVQLVESGGGLVQAGGSLRLSCAASGRIFDGNAMGWDRPAPGKERELVADISVTGGSTYYADSVKGRFTISRDNAKNTVYLQMNSLKPEDTAVYYCNAYPFSRSVQLRDYWGQGTQVTVSS”, with “low polyreactivity”; and “QVQLVESGGGLVQAGGSLRLSCAASGRIFDGNAMGWYRQAPGKERELVATITRGGRTNYADSVKGRFTISRDNAKNTVYLQMNSLKPEDTAVYYCAAEYTYYTYNLNYWGQGTQVTVSS”, with “low polyreactivity”.
Take “QVQLVESGGGLVQAGGSLRLSCAASGRIFDGNTMGWYRQAPGKERELVAAITYSGGRTSYADSVKGRFTISRDNAKNTVYLQMNSLKPEDTAVYYCNARVVTGSWYEGYYWGQGTQVTVSS”: the “polyreactivity (PSR sort gate)” value is on record as “low polyreactivity”.
As for “QVQLVESGGGLVQAGGSLRLSCAASGRIFDGYAMGWYRQAPGTERELVAAITDSGGSTYYADSVKGRFTISRDNAKNTVYLQMNSLKPEDTAVYYCAAEEIDYTDVTSGYEYWGQGTQVTVSS”, the “polyreactivity (PSR sort gate)” value is “high polyreactivity”.
Then “QVQLVESGGGLVQAGGSLRLSCAASGRIFDHYAMGWYRQAPGKERELVAAITRSGGITYYADSVKGRFTISRDNAKNTVYLQMNSLKPEDTAVYYCAALSYRYTDKFDYWGQGTQVTVSS”, with “low polyreactivity”.
For “QVQLVESGGGLVQAGGSLRLSCAASGRIFDINAMGWYRQAPGKEWELVAAISRGGSTYYADSVKGRFTISLDNAKNTVYLNMNSLKPEDTAVYYCNIYRYRGSTVFDGYDYWGHGTQVTVSS”, the “polyreactivity (PSR sort gate)” value is “high polyreactivity”.
